Assay results published in patent US20240100133A1, “ENZYMATICALLY INACTIVE GRANZYME A AND USES THEREFORE” (Saint Louis University, priority 2022, published 2024).

How the values were obtained:
[1] = tested on: Mtb H37Rv within primary CD14+ human monocytes; type: cell-based, Mycobacterium tuberculosis
PDIA1 [2] = biological target: T1, PDIA1 (Homo sapiens, UniProt P07237); assay: Incubation of GzmA-WT with recombinant PDIA1 (silver stain, anti-GzmA WB); type: biochemical; parameters: The cDNA of human PDIA1 (residues 18-479) was cloned into a pET-23 vector expression system; His-tag (N); made in house; host or cells: E. coli BL21(DE3); conditions: fresh PDIA1; not present with heat-inactivated PDIA1
Method: Expression and purification of human recombinant PDIA1. The cDNA of human PDIA1 (residues 18-479) was cloned into a pET-23 vector expression system. An N-terminal His-tag was engineered to facilitate purification. Sequence verified plasmids were transfected into BL21(DE3) cells. Cells were grown in LB medium until an OD600 of ˜0.6. Protein expression was induced with 0.5 mM IPTG. After overnight incubation at 37° C., cells were harvested by centrifugation. Soluble PDI protein was extracted by treating the cells with a nonionic detergent (B-PER, Thermo) followed by purification by affinity chromatography using a TALON resin as described before (Chinnaraj et al., 2021). Briefly, fractions eluted at 200 mM imidazole were pooled, dialyzed overnight in Tris 20 mM pH 7.4 145 mM NaCl to remove imidazole, and then loaded into size exclusion chromatography column 5200 10/300 (Cytiva) to isolate monomeric protein. Final protein concentrations were determined by measuring the absorbance at 280 nm, and using molar extinction coefficient of PDIA1 (i.e., 45755 M-lcm-1). Chemical identity was verified by mass spectrometry. Purify was >98%, as judged by SDS-PAGE.
Target sequence in this assay (P07237 18-479): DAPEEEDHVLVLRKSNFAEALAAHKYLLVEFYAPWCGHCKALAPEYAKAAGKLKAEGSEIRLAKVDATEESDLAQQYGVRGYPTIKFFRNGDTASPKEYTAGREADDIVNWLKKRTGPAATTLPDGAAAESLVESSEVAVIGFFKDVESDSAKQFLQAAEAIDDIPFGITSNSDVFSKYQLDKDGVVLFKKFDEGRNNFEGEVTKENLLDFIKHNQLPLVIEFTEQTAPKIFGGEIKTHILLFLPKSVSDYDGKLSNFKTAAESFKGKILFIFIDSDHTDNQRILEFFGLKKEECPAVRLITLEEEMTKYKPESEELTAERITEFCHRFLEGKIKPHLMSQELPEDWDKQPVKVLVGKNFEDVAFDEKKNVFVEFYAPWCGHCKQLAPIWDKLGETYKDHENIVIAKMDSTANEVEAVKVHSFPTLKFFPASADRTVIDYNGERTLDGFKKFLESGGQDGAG

CD14 = biological target: T2, CD14 (Homo sapiens, UniProt P08571); assay: Immunoprecipitation with anti-GzmA, probed for CD14; conditions: human monocyte lysates, infected and uninfected cells
T2 sequence (P08571 20-345): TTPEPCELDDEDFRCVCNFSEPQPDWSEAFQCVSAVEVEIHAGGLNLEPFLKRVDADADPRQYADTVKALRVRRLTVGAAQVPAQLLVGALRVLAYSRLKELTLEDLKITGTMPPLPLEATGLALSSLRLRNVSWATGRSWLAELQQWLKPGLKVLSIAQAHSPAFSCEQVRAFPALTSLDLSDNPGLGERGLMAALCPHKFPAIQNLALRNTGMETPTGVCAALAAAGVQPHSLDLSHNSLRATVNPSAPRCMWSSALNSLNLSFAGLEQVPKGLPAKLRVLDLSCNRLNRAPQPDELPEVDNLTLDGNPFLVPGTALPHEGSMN

[3] = tested on: mycobacteria within iMac CD14KO cells; assay: MGIA in iMac CD14KO cells; type: cell-based, mouse
mycobacteria BCG-GFP = type: binding
PDIA1 [4] = biological target: T1, PDIA1; assay: STED microscopy colocalization of GzmA with PDIA1; type: cell-based; parameters: endogenous in cells; host or cells: primary human monocytes infected with mycobacteria; conditions: STED images, infected and treated human monocytes
Method: Confocal microscopy and Stimulation Emission Depletion (STED) experiments. For confocal and STED microscopy experiments, cells were incubated on coverslips pre-treated with Cell-Tak (Corning #354240). At the time of fixation, cells were washed twice with 1×RT PBS, and then fixed in 4% paraformaldehyde for 15 min at 37° C. Slides were washed thrice for 5 min at RT with 1×PBS, and then blocked with 5% donkey serum (Cat. #017-000-121, Jackson ImmunoResearch, West Grove, PA) with 0.25% Tween-20 (Cat. #P9416, Sigma, St. Louis, MO) and True Stain Fc blocker (added only during blocking step) (Cat. #426101, Biolegend, San Diego, CA). Cells were then incubated overnight at 4° C. with primary antibody anti-GzmA (Cat. #MAB29051, R&D, Minneapolis, MN) at 12.5 μg/mL in blocking buffer, anti-PDIA1 (Cat. #MAB4236, R&D, Minneapolis, MN) at 12.5 μg/mL in blocking buffer, anti-LAMP1 at 12.5 ug/ml (Cat. #MAB4800, R&D, Minneapolis, MN), or anti-ATPSH (Cat. #ab110275, Abcam, Cambridge, UK) at 5 μg/mL in blocking buffer. To remove unbound antibody, cells were washed four times with 1×PBS at RT, and then incubated in the dark for 2 h with secondary antibody conjugated with Alexa Fluor 594 (Cat. #715-545-150, Jackson Immunoresearch, West Grove, PA) at 1:100 or Atto 647N (Cat. #ASR3248, Abcepta, San Diego, Ca) at 1:100. […]
Target sequence in this assay (P07237 18-508): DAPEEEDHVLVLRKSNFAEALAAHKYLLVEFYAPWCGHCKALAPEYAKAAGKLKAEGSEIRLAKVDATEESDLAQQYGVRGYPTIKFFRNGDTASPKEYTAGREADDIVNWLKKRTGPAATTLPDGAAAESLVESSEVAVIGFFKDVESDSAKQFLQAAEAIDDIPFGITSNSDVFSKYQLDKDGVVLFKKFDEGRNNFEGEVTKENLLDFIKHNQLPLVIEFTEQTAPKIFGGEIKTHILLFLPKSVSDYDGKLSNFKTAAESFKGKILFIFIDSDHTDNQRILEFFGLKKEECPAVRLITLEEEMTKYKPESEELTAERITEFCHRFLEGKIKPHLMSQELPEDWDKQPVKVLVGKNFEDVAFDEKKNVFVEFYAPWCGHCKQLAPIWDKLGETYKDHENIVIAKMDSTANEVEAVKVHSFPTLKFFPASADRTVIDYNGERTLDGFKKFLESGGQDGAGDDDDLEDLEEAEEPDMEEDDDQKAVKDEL

[5] = tested on: human monocytes infected with BCG-GFP; assay: Phagocytic score, BCG-GFP uptake by monocytes; conditions: 2 h of infection with BCG-GFP
Method: Monocytes were treated or not with GzmA, after which BCG-GFP was used to infect cells for 2 hours. Cells were then washed twice with FACS buffer and processed by flow cytometry. The phagocytic score was measured as previously described (Ackerman et al., 2011).

B1: GzmA-WT: recombinant wild-type human Granzyme A, homodimeric serine protease, purified from HEK293T supernatants (protein)
chain: IIGGNEVTPHSRPYMVLLSLDRKTICAGALIAKDWVLTAAHCNLNKRSQVILGAHSITREEPTKQIMLVKKEFPYPCYDPATREGDLKLLQLMEKAKINKYVTILHLPKKGDDVKPGTMCQVAGWGRTHNSASWSDTLREVNITIIDRKVCNDRNHYNFNPVIGMNMVCAGSLRGGRDSCNGDSGSPLLCEGVFRGVTSFGLENKCGDPRGPGVYILLSKKHLNWIIMTIKGAV
modifications: left off: small tags and cut ends
notes: recombinant wild-type human Granzyme A, homodimeric serine protease, purified from HEK293T supernatants
B1 was tested, and the “inhibition of intracellular Mtb (MGIA)” value ([1]; 200 nM GzmA, Mtb MOI 1, human monocytes) was “inhibited Mtb”, the “GzmA inhibitory activity after CD14 neutralization, Mtb” value ([1]; Mtb-infected monocytes, anti-CD14) was “reversed GzmA-mediated mycobacterial growth inhibition” and the “GzmA inhibitory activity after TLR4 neutralization, Mtb” value ([1]; Mtb-infected monocytes, anti-TLR4) was “reversed GzmA-mediated mycobacterial growth inhibition”. For the same molecule, the “conversion of homodimer by PDIA1” value (PDIA1 [2]) was “monomeric band at 27 KDa”, the “binding to CD14 (immunoprecipitation)” value (CD14) was “bound to CD14” and the “inhibition of intracellular mycobacterial growth in CD14-deficient iMac cells” value [3] was “incapable of inhibiting intracellular mycobacterial growth”. The binding to mycobacteria (mycobacteria BCG-GFP) was “bound mycobacteria”, the “degree of co-localization between GzmA and PDIA1” value (PDIA1 [4]) was 75% and the phagocytic score [5] was “higher phagocytic score compared to untreated cells”.
